Reference: patent US20150344570A1 (published 2015)

T1: FcγRIIb, extracellular domain with C-terminal His tag (human, UniProt P31994 43-217)
T1 construct: extracellular domain; expressed in FreeStyle293 cells; also called FcgRIIb; 2b; not shown: His tag attached to the C terminus
T1 sequence (looked up): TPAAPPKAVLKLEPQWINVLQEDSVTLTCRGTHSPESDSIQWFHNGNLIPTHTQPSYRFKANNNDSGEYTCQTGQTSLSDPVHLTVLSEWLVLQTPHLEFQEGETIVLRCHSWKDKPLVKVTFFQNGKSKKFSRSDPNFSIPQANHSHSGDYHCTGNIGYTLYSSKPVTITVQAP

T2: FcγRIIa H (FcγRIIa type H, His at position 131), extracellular domain with C-terminal His tag (human, UniProt P12318 34-217)
T2 construct: extracellular domain; expressed in FreeStyle293 cells; also called FcgRIIa H; 2aH; not shown: His tag attached to the C terminus
T2 sequence (looked up): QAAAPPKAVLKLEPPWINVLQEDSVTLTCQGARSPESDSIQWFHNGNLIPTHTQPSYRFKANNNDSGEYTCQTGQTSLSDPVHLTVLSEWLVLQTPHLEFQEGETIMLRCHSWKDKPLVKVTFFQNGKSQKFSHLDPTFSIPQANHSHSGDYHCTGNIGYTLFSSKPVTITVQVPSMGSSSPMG


Experiments:
[1] = target: T1, FcγRIIb, extracellular domain with …; experiment: SPR (Biacore), antibody captured on antigen peptide chip, FcγR as analyte; relative to GpH7-A5/GpH7-B3/GpL16-k0 = 100
[2] = target: T2, FcγRIIa H (FcγRIIa type H, His at …); experiment: as above
[3] = target: T2, FcγRIIa H (FcγRIIa type H, His at …); experiment: SPR (Biacore); He/Con_2aH divided by He/Con_2b (FcγRIIa H against FcγRIIb)

Row | Binder | He/Con_2b (relative binding activity) [1] | He/Con_2aH (relative binding activity) [2] | He_2aH/2b (IIaH/IIb) [3] [ratio]
1 | GpH7-A5/GpH7-B3 variant S239_20W/GpL16-k0 (antibody, human IgG1, kappa, Heterodimerized antibody (He Ab): mutation in the GpH7-B3 chain only; also called He Ab) heavy 1: not shown heavy 2: not shown light: DIVMTQSPLSLPVTPGEPASISCQASESLVHSNRNTYLHWYLQKPGQSPQLLIYKVSNRFSGVPDRFSGSGSGTDFTLKISRVEAEDVGVYYCSQNTHVPPTFGQGTKVEIERTVAAPSVFIFPPSDEQLKSGTASVVCLLNNFYPREAKVQWKVDNALQSGNSQESVTEQDSKDSTYSLSSTLTLSKADYEKHKVYACEVTHQGLSSPVTKSFNRGEC | 45.1 % of HeCon Ab (= 100) | 35.2 % of HeCon Ab (= 100) | 0.78
2 | GpH7-A5/GpH7-B3 variant V266_01G/GpL16-k0 (antibody, human IgG1, kappa, Heterodimerized antibody (He Ab): mutation in the GpH7-B3 chain only; also called He Ab) heavy 1: not shown heavy 2: not shown light: DIVMTQSPLSLPVTPGEPASISCQASESLVHSNRNTYLHWYLQKPGQSPQLLIYKVSNRFSGVPDRFSGSGSGTDFTLKISRVEAEDVGVYYCSQNTHVPPTFGQGTKVEIERTVAAPSVFIFPPSDEQLKSGTASVVCLLNNFYPREAKVQWKVDNALQSGNSQESVTEQDSKDSTYSLSSTLTLSKADYEKHKVYACEVTHQGLSSPVTKSFNRGEC | 51.5 % of HeCon Ab (= 100) | 36.7 % of HeCon Ab (= 100) | 0.71
3 | GpH7-A5/GpH7-B3 variant V266_14T/GpL16-k0 (antibody, human IgG1, kappa, Heterodimerized antibody (He Ab): mutation in the GpH7-B3 chain only; also called He Ab) heavy 1: not shown heavy 2: not shown light: DIVMTQSPLSLPVTPGEPASISCQASESLVHSNRNTYLHWYLQKPGQSPQLLIYKVSNRFSGVPDRFSGSGSGTDFTLKISRVEAEDVGVYYCSQNTHVPPTFGQGTKVEIERTVAAPSVFIFPPSDEQLKSGTASVVCLLNNFYPREAKVQWKVDNALQSGNSQESVTEQDSKDSTYSLSSTLTLSKADYEKHKVYACEVTHQGLSSPVTKSFNRGEC | 82.3 % of HeCon Ab (= 100) | 43.3 % of HeCon Ab (= 100) | 0.53
4 | GpH7-A5/GpH7-B3 variant V266_07I/GpL16-k0 (antibody, human IgG1, kappa, Heterodimerized antibody (He Ab): mutation in the GpH7-B3 chain only; also called He Ab) heavy 1: not shown heavy 2: not shown light: DIVMTQSPLSLPVTPGEPASISCQASESLVHSNRNTYLHWYLQKPGQSPQLLIYKVSNRFSGVPDRFSGSGSGTDFTLKISRVEAEDVGVYYCSQNTHVPPTFGQGTKVEIERTVAAPSVFIFPPSDEQLKSGTASVVCLLNNFYPREAKVQWKVDNALQSGNSQESVTEQDSKDSTYSLSSTLTLSKADYEKHKVYACEVTHQGLSSPVTKSFNRGEC | 152 % of HeCon Ab (= 100) | 106 % of HeCon Ab (= 100) | 0.69
5 | GpH7-A5/GpH7-B3 variant V266_13S/GpL16-k0 (antibody, human IgG1, kappa, Heterodimerized antibody (He Ab): mutation in the GpH7-B3 chain only; also called He Ab) heavy 1: not shown heavy 2: not shown light: DIVMTQSPLSLPVTPGEPASISCQASESLVHSNRNTYLHWYLQKPGQSPQLLIYKVSNRFSGVPDRFSGSGSGTDFTLKISRVEAEDVGVYYCSQNTHVPPTFGQGTKVEIERTVAAPSVFIFPPSDEQLKSGTASVVCLLNNFYPREAKVQWKVDNALQSGNSQESVTEQDSKDSTYSLSSTLTLSKADYEKHKVYACEVTHQGLSSPVTKSFNRGEC | 54.4 % of HeCon Ab (= 100) | 27 % of HeCon Ab (= 100) | 0.5
6 | GpH7-A5/GpH7-B3 variant V266_04F/GpL16-k0 (antibody, human IgG1, kappa, Heterodimerized antibody (He Ab): mutation in the GpH7-B3 chain only; also called He Ab) heavy 1: not shown heavy 2: not shown light: DIVMTQSPLSLPVTPGEPASISCQASESLVHSNRNTYLHWYLQKPGQSPQLLIYKVSNRFSGVPDRFSGSGSGTDFTLKISRVEAEDVGVYYCSQNTHVPPTFGQGTKVEIERTVAAPSVFIFPPSDEQLKSGTASVVCLLNNFYPREAKVQWKVDNALQSGNSQESVTEQDSKDSTYSLSSTLTLSKADYEKHKVYACEVTHQGLSSPVTKSFNRGEC | 57.6 % of HeCon Ab (= 100) | 25.3 % of HeCon Ab (= 100) | 0.44
7 | GpH7-A5/GpH7-B3 variant V266_06M/GpL16-k0 (antibody, human IgG1, kappa, Heterodimerized antibody (He Ab): mutation in the GpH7-B3 chain only; also called He Ab) heavy 1: not shown heavy 2: not shown light: DIVMTQSPLSLPVTPGEPASISCQASESLVHSNRNTYLHWYLQKPGQSPQLLIYKVSNRFSGVPDRFSGSGSGTDFTLKISRVEAEDVGVYYCSQNTHVPPTFGQGTKVEIERTVAAPSVFIFPPSDEQLKSGTASVVCLLNNFYPREAKVQWKVDNALQSGNSQESVTEQDSKDSTYSLSSTLTLSKADYEKHKVYACEVTHQGLSSPVTKSFNRGEC | 251 % of HeCon Ab (= 100) | 83.9 % of HeCon Ab (= 100) | 0.33
8 | GpH7-A5/GpH7-B3 variant V266_09D/GpL16-k0 (antibody, human IgG1, kappa, Heterodimerized antibody (He Ab): mutation in the GpH7-B3 chain only; also called He Ab) heavy 1: not shown heavy 2: not shown light: DIVMTQSPLSLPVTPGEPASISCQASESLVHSNRNTYLHWYLQKPGQSPQLLIYKVSNRFSGVPDRFSGSGSGTDFTLKISRVEAEDVGVYYCSQNTHVPPTFGQGTKVEIERTVAAPSVFIFPPSDEQLKSGTASVVCLLNNFYPREAKVQWKVDNALQSGNSQESVTEQDSKDSTYSLSSTLTLSKADYEKHKVYACEVTHQGLSSPVTKSFNRGEC | 10.1 % of HeCon Ab (= 100) | 6.4 % of HeCon Ab (= 100) | 0.63
9 | GpH7-A5/GpH7-B3 variant V266_12R/GpL16-k0 (antibody, human IgG1, kappa, Heterodimerized antibody (He Ab): mutation in the GpH7-B3 chain only; also called He Ab) heavy 1: not shown heavy 2: not shown light: DIVMTQSPLSLPVTPGEPASISCQASESLVHSNRNTYLHWYLQKPGQSPQLLIYKVSNRFSGVPDRFSGSGSGTDFTLKISRVEAEDVGVYYCSQNTHVPPTFGQGTKVEIERTVAAPSVFIFPPSDEQLKSGTASVVCLLNNFYPREAKVQWKVDNALQSGNSQESVTEQDSKDSTYSLSSTLTLSKADYEKHKVYACEVTHQGLSSPVTKSFNRGEC | -1.1 % of HeCon Ab (= 100) | 1.1 % of HeCon Ab (= 100) | -1.05
10 | GpH7-A5/GpH7-B3 variant V266_10E/GpL16-k0 (antibody, human IgG1, kappa, Heterodimerized antibody (He Ab): mutation in the GpH7-B3 chain only; also called He Ab) heavy 1: not shown heavy 2: not shown light: DIVMTQSPLSLPVTPGEPASISCQASESLVHSNRNTYLHWYLQKPGQSPQLLIYKVSNRFSGVPDRFSGSGSGTDFTLKISRVEAEDVGVYYCSQNTHVPPTFGQGTKVEIERTVAAPSVFIFPPSDEQLKSGTASVVCLLNNFYPREAKVQWKVDNALQSGNSQESVTEQDSKDSTYSLSSTLTLSKADYEKHKVYACEVTHQGLSSPVTKSFNRGEC | 15.2 % of HeCon Ab (= 100) | 10.1 % of HeCon Ab (= 100) | 0.66
11 | GpH7-A5/GpH7-B3 variant V266_08L/GpL16-k0 (antibody, human IgG1, kappa, Heterodimerized antibody (He Ab): mutation in the GpH7-B3 chain only; also called He Ab) heavy 1: not shown heavy 2: not shown light: DIVMTQSPLSLPVTPGEPASISCQASESLVHSNRNTYLHWYLQKPGQSPQLLIYKVSNRFSGVPDRFSGSGSGTDFTLKISRVEAEDVGVYYCSQNTHVPPTFGQGTKVEIERTVAAPSVFIFPPSDEQLKSGTASVVCLLNNFYPREAKVQWKVDNALQSGNSQESVTEQDSKDSTYSLSSTLTLSKADYEKHKVYACEVTHQGLSSPVTKSFNRGEC | 236 % of HeCon Ab (= 100) | 104 % of HeCon Ab (= 100) | 0.44
12 | GpH7-A5/GpH7-B3 variant V266_15Y/GpL16-k0 (antibody, human IgG1, kappa, Heterodimerized antibody (He Ab): mutation in the GpH7-B3 chain only; also called He Ab) heavy 1: not shown heavy 2: not shown light: DIVMTQSPLSLPVTPGEPASISCQASESLVHSNRNTYLHWYLQKPGQSPQLLIYKVSNRFSGVPDRFSGSGSGTDFTLKISRVEAEDVGVYYCSQNTHVPPTFGQGTKVEIERTVAAPSVFIFPPSDEQLKSGTASVVCLLNNFYPREAKVQWKVDNALQSGNSQESVTEQDSKDSTYSLSSTLTLSKADYEKHKVYACEVTHQGLSSPVTKSFNRGEC | 49.4 % of HeCon Ab (= 100) | 18.1 % of HeCon Ab (= 100) | 0.37
